The target in test [1] is T1, EGFR on NR6 fibroblast cells (UniProt P00533 25-1210, limits assumed).
T1 construct: whole, on cells; also called fibroblast cells expressing EGFR; NR6 fibroblasts
Nature of the test: competition for binding to fibroblast cells, flow cytometry.
Experimental: (§1) Fluorescence intensity of cell surface labeling was measured by flow cytometry.

The target of test [2] is T1, EGFR on NR6 fibroblast cells. Nature of the test: competition with Alexa-488 labeled wt EGF on NR6 fibroblast cells, flow cytometry, 2 hr at 4 C.
Experimental: as §1

B1: EGF mutant clone 121 (competitor on NR6 cells) (ligand)
chain: NSDPKCPLSHEGYCLNDGVCMYIGTLDRYACNCVVGYVGERCQYRDLKWLALR
In test [1], B1 gave an IC50 of 0.14 nM.

B2: EGF mutant clone 30 (soluble) (ligand)
chain: SSNSGCPLSHDGYCLHDGVCMYIEALDRYACNCVVGYAGERCQYRDLKWWELR
notes: Produced solubly
Molecule B2 gave a Kd in test [2] of 0.56 nM.

Source of the values: US20080249008A1 (published 2008).
